Consider 39 variants from the MegaScale stability set (Tsuboyama et al. 2023).

Sequences and labels used below:
B1: 5KPH (parent)
chain: EEKRQVKQVAKEKLLEQSPNSKVQVRRVQKQGNTIRVELELRTNGKKENYTVEVERQGNTWTVKRITRT

The series covers variants of B1. Put plainly: folding stability dG (cDNA display proteolysis); higher = more stable. Conditions: PBS, room temperature.
Consider EEKRQVKQVAKDKLLEQSPNSKVQVRRVQKQGNTIRVELELRTNGKKENYTVEVERQGNTWTVKRITRT [E12D], for which the “folding stability dG” value is 4.17 kcal/mol.
Under EEKRQVKQVAKAKLLEQSPNSKVQVRRVQKQGNTIRVELELRTNGKKENYTVEVERQGNTWTVKRITRT [E12A] stands 4.15 kcal/mol.
The figure for EEKRQVKQVAKCKLLEQSPNSKVQVRRVQKQGNTIRVELELRTNGKKENYTVEVERQGNTWTVKRITRT [E12C] is 3.52 kcal/mol; for EEKRQVKQVAKHKLLEQSPNSKVQVRRVQKQGNTIRVELELRTNGKKENYTVEVERQGNTWTVKRITRT [E12H] it is 3.53 kcal/mol.
The figure for EEKRQVKQVAKGKLLEQSPNSKVQVRRVQKQGNTIRVELELRTNGKKENYTVEVERQGNTWTVKRITRT [E12G] is 3.34 kcal/mol; for EEKRQVKQVAKIKLLEQSPNSKVQVRRVQKQGNTIRVELELRTNGKKENYTVEVERQGNTWTVKRITRT [E12I] it is 3.56 kcal/mol.
In the case of EEKRQVKQVAKFKLLEQSPNSKVQVRRVQKQGNTIRVELELRTNGKKENYTVEVERQGNTWTVKRITRT [E12F], the “folding stability dG” value was found to be 2.78 kcal/mol.
On to EEKRQVKQVKKEKLLEQSPNSKVQVRRVQKQGNTIRVELELRTNGKKENYTVEVERQGNTWTVKRITRT [A10K], for which the “folding stability dG” value is 1.92 kcal/mol.
The figure for EEKRQVKQVLKEKLLEQSPNSKVQVRRVQKQGNTIRVELELRTNGKKENYTVEVERQGNTWTVKRITRT [A10L] is 3.55 kcal/mol.
Under EEKRQVKQVNKEKLLEQSPNSKVQVRRVQKQGNTIRVELELRTNGKKENYTVEVERQGNTWTVKRITRT [A10N] stands 1.88 kcal/mol.
The figure for EEKRQVKQVVKEKLLEQSPNSKVQVRRVQKQGNTIRVELELRTNGKKENYTVEVERQGNTWTVKRITRT [A10V] is 3.78 kcal/mol.
With EEKRQVKQVWKEKLLEQSPNSKVQVRRVQKQGNTIRVELELRTNGKKENYTVEVERQGNTWTVKRITRT [A10W], the “folding stability dG” value amounted to 2.27 kcal/mol.
For the variant EEKRQVKQVPKEKLLEQSPNSKVQVRRVQKQGNTIRVELELRTNGKKENYTVEVERQGNTWTVKRITRT [A10P], the “folding stability dG” value stood at 1.77 kcal/mol.
The figure for EEKRQVKQVMKEKLLEQSPNSKVQVRRVQKQGNTIRVELELRTNGKKENYTVEVERQGNTWTVKRITRT [A10M] is 2.73 kcal/mol; for EEKRQVKQVYKEKLLEQSPNSKVQVRRVQKQGNTIRVELELRTNGKKENYTVEVERQGNTWTVKRITRT [A10Y] it is 1.96 kcal/mol.
Regarding EEKRQVKQVSKEKLLEQSPNSKVQVRRVQKQGNTIRVELELRTNGKKENYTVEVERQGNTWTVKRITRT [A10S], the “folding stability dG” value was 2.92 kcal/mol.
Consider EEKRQVKQVRKEKLLEQSPNSKVQVRRVQKQGNTIRVELELRTNGKKENYTVEVERQGNTWTVKRITRT [A10R], for which the “folding stability dG” value is 2.02 kcal/mol.
Under EEKRQVKQVTKEKLLEQSPNSKVQVRRVQKQGNTIRVELELRTNGKKENYTVEVERQGNTWTVKRITRT [A10T] stands 2.76 kcal/mol; under EEKRQVKQVIKEKLLEQSPNSKVQVRRVQKQGNTIRVELELRTNGKKENYTVEVERQGNTWTVKRITRT [A10I], 4.24 kcal/mol; under EEKRQVKQVQKEKLLEQSPNSKVQVRRVQKQGNTIRVELELRTNGKKENYTVEVERQGNTWTVKRITRT [A10Q], 1.91 kcal/mol.
Under EEKRQVKQVAYEKLLEQSPNSKVQVRRVQKQGNTIRVELELRTNGKKENYTVEVERQGNTWTVKRITRT [K11Y] stands 3.32 kcal/mol; under EEKRQVKQVAHEKLLEQSPNSKVQVRRVQKQGNTIRVELELRTNGKKENYTVEVERQGNTWTVKRITRT [K11H], 2.85 kcal/mol; under EEKRQVKQVATEKLLEQSPNSKVQVRRVQKQGNTIRVELELRTNGKKENYTVEVERQGNTWTVKRITRT [K11T], 3.86 kcal/mol.
Under EEKRQVKQVAPEKLLEQSPNSKVQVRRVQKQGNTIRVELELRTNGKKENYTVEVERQGNTWTVKRITRT [K11P] stands 2.01 kcal/mol.
As for EEKRQVKQVASEKLLEQSPNSKVQVRRVQKQGNTIRVELELRTNGKKENYTVEVERQGNTWTVKRITRT [K11S], the “folding stability dG” value was 3.8 kcal/mol.
EEKRQVKQVAFEKLLEQSPNSKVQVRRVQKQGNTIRVELELRTNGKKENYTVEVERQGNTWTVKRITRT [K11F]: the “folding stability dG” value stood at 3.33 kcal/mol.
The figure for EEKRQVKQVANEKLLEQSPNSKVQVRRVQKQGNTIRVELELRTNGKKENYTVEVERQGNTWTVKRITRT [K11N] is 2.38 kcal/mol; for EEKRQVKQVAMEKLLEQSPNSKVQVRRVQKQGNTIRVELELRTNGKKENYTVEVERQGNTWTVKRITRT [K11M] it is 4.37 kcal/mol; for EEKRQVKQVAREKLLEQSPNSKVQVRRVQKQGNTIRVELELRTNGKKENYTVEVERQGNTWTVKRITRT [K11R] it is 3.94 kcal/mol.
The figure for EEKRQVKQVAAEKLLEQSPNSKVQVRRVQKQGNTIRVELELRTNGKKENYTVEVERQGNTWTVKRITRT [K11A] is 3.8 kcal/mol.
Take EEKRQVKQVADEKLLEQSPNSKVQVRRVQKQGNTIRVELELRTNGKKENYTVEVERQGNTWTVKRITRT [K11D]: the “folding stability dG” value was found to be 1.94 kcal/mol.
The figure for EEKRQVKQVAVEKLLEQSPNSKVQVRRVQKQGNTIRVELELRTNGKKENYTVEVERQGNTWTVKRITRT [K11V] is 4.49 kcal/mol.
The figure for EEKRQVKQVACEKLLEQSPNSKVQVRRVQKQGNTIRVELELRTNGKKENYTVEVERQGNTWTVKRITRT [K11C] is 3.75 kcal/mol; for EEKRQVKQVAEEKLLEQSPNSKVQVRRVQKQGNTIRVELELRTNGKKENYTVEVERQGNTWTVKRITRT [K11E] it is 3.44 kcal/mol; for EEKRQVKQVAWEKLLEQSPNSKVQVRRVQKQGNTIRVELELRTNGKKENYTVEVERQGNTWTVKRITRT [K11W] it is 3.24 kcal/mol.
Take EEKRQVKQVAIEKLLEQSPNSKVQVRRVQKQGNTIRVELELRTNGKKENYTVEVERQGNTWTVKRITRT [K11I]: the “folding stability dG” value is 4.55 kcal/mol.
Under EEKRQVKQVALEKLLEQSPNSKVQVRRVQKQGNTIRVELELRTNGKKENYTVEVERQGNTWTVKRITRT [K11L] stands 3.99 kcal/mol.
Under EEKRQVKQVAQEKLLEQSPNSKVQVRRVQKQGNTIRVELELRTNGKKENYTVEVERQGNTWTVKRITRT [K11Q] stands 3.45 kcal/mol; under EEKRQVKQVAGEKLLEQSPNSKVQVRRVQKQGNTIRVELELRTNGKKENYTVEVERQGNTWTVKRITRT [K11G], 2.74 kcal/mol.
